B1: Chaperone Ric-8A (Homo sapiens), Q9NPQ8 (parent)
chain: MEPRAVAEAVETGEEDVIMEALRSYNQEHSQSFTFDDAQQEDRKRLAELLVSVLEQGLPPSHRVIWLQSVRILSRDRNCLDPFTSRQSLQALACYADISVSEGSVPESADMDVVLESLKCLCNLVLSSPVAQMLAAEARLVVKLTERVGLYRERSFPHDVQFFDLRLLFLLTALRTDVRQQLFQELKGVRLLTDTLELTLGVTPEGNPPPTLLPSQETERAMEILKVLFNITLDSIKGEVDEEDAALYRHLGTLLRHCVMIATAGDRTEEFHGHAVNLLGNLPLKCLDVLLTLEPHGDSTEFMGVNMDVIRALLIFLEKRLHKTHRLKESVAPVLSVLTECARMHRPARKFLKAQVLPPLRDVRTRPEVGEMLRNKLVRLMTHLDTDVKRVAAEFLFVLCSESVPRFIKYTGYGNAAGLLAARGLMAGGRPEGQYSEDEDTDTDEYKEAKASINPVTGRVEEKPPNPMEGMTEEQKEHEAMKLVTMFDKLSRNRVIQPMGMSPRGHLTSLQDAMCETMEQQLSSDPDSDPD
B2: Protein VAC14 homolog (Homo sapiens), Q08AM6 (parent)
chain: MNPEKDFAPLTPNIVRALNDKLYEKRKVAALEIEKLVREFVAQNNTVQIKHVIQTLSQEFALSQHPHSRKGGLIGLAACSIALGKDSGLYLKELIEPVLTCFNDADSRLRYYACEALYNIVKVARGAVLPHFNVLFDGLSKLAADPDPNVKSGSELLDRLLKDIVTESNKFDLVSFIPLLRERIYSNNQYARQFIISWILVLESVPDINLLDYLPEILDGLFQILGDNGKEIRKMCEVVLGEFLKEIKKNPSSVKFAEMANILVIHCQTTDDLIQLTAMCWMREFIQLAGRVMLPYSSGILTAVLPCLAYDDRKKSIKEVANVCNQSLMKLVTPEDDELDELRPGQRQAEPTPDDALPKQEGTASGGPDGSCDSSFSSGISVFTAASTERAPVTLHLDGIVQVLNCHLSDTAIGMMTRIAVLKWLYHLYIKTPRKMFRHTDSLFPILLQTLSDESDEVILKDLEVLAEIASSPAGQTDDPGPLDGPDLQASHSELQVPTPGRAGLLNTSGTKGLECSPSTPTMNSYFYKFMINLLKRFSSERKLLEVRGPFIIRQLCLLLNAENIFHSMADILLREEDLKFASTMVHALNTILLTSTELFQLRNQLKDLKTLESQNLFCCLYRSWCHNPVTTVSLCFLTQNYRHAYDLIQKFGDLEVTVDFLAEVDKLVQLIECPIFTYLRLQLLDVKNNPYLIKALYGLLMLLPQSSAFQLLSHRLQCVPNPELLQTEDSLKAAPKSQKADSPSIDYAELLQHFEKVQNKHLEVRHQRSGRGDHLDRRVVL
partner: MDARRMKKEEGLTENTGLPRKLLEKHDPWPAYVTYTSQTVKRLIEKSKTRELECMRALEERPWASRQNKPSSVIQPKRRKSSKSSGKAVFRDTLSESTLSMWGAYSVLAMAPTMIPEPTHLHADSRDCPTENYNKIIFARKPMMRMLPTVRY
B3: Liprin-alpha-1 (Homo sapiens), Q13136 (parent)
chain: MMCEVMPTISEAEGPPGGGGGHGSGSPSQPDADSHFEQLMVSMLEERDRLLDTLRETQETLALTQGKLHEVGHERDSLQRQLNTALPQEFAALTKELNVCREQLLEREEEIAELKAERNNTRLLLEHLECLVSRHERSLRMTVVKRQAQSPAGVSSEVEVLKALKSLFEHHKALDEKVRERLRVALERCSLLEEELGATHKELMILKEQNNQKKTLTDGVLDINHEQENTPSTSGKRSSDGSLSHEEDLAKVIELQEIISKQSREQSQMKERLASLSSHVTELEEDLDTARKDLIKSEEMNTKLQRDVREAMAQKEDMEERITTLEKRYLAAQREATSVHDLNDKLENEIANKDSMHRQTEDKNRQLQERLELAEQKLQQTLRKAETLPEVEAELAQRVAALSKAEERHGNIEERLRQMEAQLEEKNQELQRARQREKMNEEHNKRLSDTVDKLLSESNERLQLHLKERMAALEDKNSLLREVESAKKQLEETQHDKDQLVLNIEALRAELDHMRLRGASLHHGRPHLGSVPDFRFPMADGHTDSYSTSAVLRRPQKGRLAALRDEPSKVQTLNEQDWERAQQASVLANVAQAFESDADVSDGEDDRDTLLSSVDLLSPSGQADAHTLAMMLQEQLDAINKEIRLIQEEKENTEQRAEEIESRVGSGSLDNLGRFRSMSSIPPYPASSLASSSPPGSGRSTPRRIPHSPAREVDRLGVMTLLPPSREEVRDDKTTIKCETSPPSSPRALRLDRLHKGALHTVSHEDIRDIRNSTGSQDGPVSNPSSSNSSQDSLHKAPKKKGIKSSIGRLFGKKEKGRPGQTGKEALGQAGVSETDNSSQDALGLSKLGGQAEKNRKLQKKHELLEEARRQGLPFAQWDGPTVVVWLELWVGMPAWYVAACRANVKSGAIMSALSDTEIQREIGISNPLHRLKLRLAIQEIMSLTSPSAPPTSRTTLAYGDMNHEWIGNEWLPSLGLPQYRSYFMECLVDARMLDHLTKKDLRGQLKMVDSFHRNSFQCGIMCLRRLNYDRKELERKREESQSEIKDVLVWSNDRVIRWILSIGLKEYANNLIESGVHGALLALDETFDFSALALLLQIPTQNTQARAVLEREFNNLLVMGTDRRFDEDDDKSFRRAPSWRKKFRPKDIRGLAAGSAETLPANFRVTSSMSSPSMQPKKMQMDGNVSGTQRLDSATVRTYSC
B4: Ligand of Numb protein X 2 (Homo sapiens), Q8N448 (parent)
chain: MGTTSDEMVSVEQTSSSSLNPLCFECGQQHWTRENHLYNYQNEVDDDLVCHICLQPLLQPLDTPCGHTFCYKCLRNFLQEKDFCPLDRKRLHFKLCKKSSILVHKLLDKLLVLCPFSSVCKDVMQRCDLEAHLKNRCPGASHRRVALERRKTSRTQAEIENENGPTLLDPAGTLSPEADCLGTGAVPVERHLTSASLSTWSEEPGLDNPAFEESAGADTTQQPLSLPEGEITTIEIHRSNPYIQLGISIVGGNETPLINIVIQEVYRDGVIARDGRLLAGDQILQVNNYNISNVSHNYARAVLSQPCNTLHLTVLRERRFGNRAHNHSDSNSPREEIFQVALHKRDSGEQLGIKLVRRTDEPGVFILDLLEGGLAAQDGRLSSNDRVLAINGHDLKYGTPELAAQIIQASGERVNLTIARPGKPQPGNTIREAGNHSSSSQHHTPPPYYSRPSSHKDLTQCVTCQEKHITVKKEPHESLGMTVAGGRGSKSGELPIFVTSVPPHGCLARDGRIKRGDVLLNINGIDLTNLSHSEAVAMLKASAASPAVALKALEVQIVEEATQNAEEQPSTFSENEYDASWSPSWVMWLGLPSTLHSCHDIVLRRSYLGSWGFSIVGGYEENHTNQPFFIKTIVLGTPAYYDGRLKCGDMIVAVNGLSTVGMSHSALVPMLKEQRNKVTLTVICWPGSLV
partner: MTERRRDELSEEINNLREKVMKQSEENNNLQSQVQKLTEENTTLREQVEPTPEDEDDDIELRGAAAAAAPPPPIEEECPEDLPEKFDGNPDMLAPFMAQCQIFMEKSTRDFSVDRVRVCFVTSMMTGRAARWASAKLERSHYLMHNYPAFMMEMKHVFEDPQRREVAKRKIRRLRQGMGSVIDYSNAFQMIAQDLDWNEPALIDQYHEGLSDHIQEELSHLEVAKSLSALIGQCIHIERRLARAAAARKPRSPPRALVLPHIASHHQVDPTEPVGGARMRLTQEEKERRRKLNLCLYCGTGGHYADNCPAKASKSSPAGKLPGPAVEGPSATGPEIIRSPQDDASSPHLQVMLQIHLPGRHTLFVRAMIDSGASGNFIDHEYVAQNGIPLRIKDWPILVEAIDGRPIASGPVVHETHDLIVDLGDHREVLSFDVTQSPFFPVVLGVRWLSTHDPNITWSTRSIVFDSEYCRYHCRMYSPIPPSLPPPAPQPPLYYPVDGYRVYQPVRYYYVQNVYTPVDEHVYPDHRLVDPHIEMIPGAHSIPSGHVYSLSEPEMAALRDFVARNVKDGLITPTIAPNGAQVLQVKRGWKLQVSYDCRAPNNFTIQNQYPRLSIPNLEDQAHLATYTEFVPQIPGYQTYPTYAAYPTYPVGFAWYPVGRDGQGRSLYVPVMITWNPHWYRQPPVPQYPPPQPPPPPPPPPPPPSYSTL
B5: Genetic suppressor element 1 (Homo sapiens), Q14687 (parent)
chain: MKGMSHEPKSPSLGMLSTATRTTATVNPLTPSPLNGALVPSGSPATSSALSAQAAPSSSFAAALRKLAKQAEEPRGSSLSSESSPVSSPATNHSSPASTPKRVPMGPIIVPPGGHSVPSTPPVVTIAPTKTVNGVWRSESRQDAGSRSSSGGRERLIVEPPLPQEKAGGPAIPSHLLSTPYPFGLSPSSVVQDSRFPPLNLQRPVHHVVPPSTVTEDYLRSFRPYHTTDDLRMSSLPPLGLDPATAAAYYHPSYLAPHPFPHPAFRMDDSYCLSALRSPFYPIPTPGSLPPLHPSAMHLHLSGVRYPPELSHSSLAALHSERMSGLSAERLQMDEELRREREREREREREREADREREKEREREREKEREQEKEREREKERERELERQREQRAREKELLAAKALEPSFLPVAELHGLRGHATEERGKPSEQLTPTRAEKLKDAGLQAPKPVQHPLHPVPTPHHTVPSLISNHGIFSLPSSSAATALLIQRTNEEEKWLARQRRLRQEKEDRQSQVSEFRQQVLEQHLDMGRPPVPAEAEHRPESTTRPGPNRHEPGGRDPPQHFGGPPPLISPKPQLHAAPTALWNPVSLMDNTLETRRAESHSLHSHPAAFEPSRQAAVPLVKVERVFCPEKAEEGPRKREPAPLDKYQPPPPPPREGGSLEHQPFLPGPGPFLAELEKSTQTILGQQRASLPQAATFGELSGPLKPGSPYRPPVPRAPDPAYIYDEFLQQRRRLVSKLDLEERRRREAQEKGYYYDLDDSYDESDEEEVRAHLRCVAEQPPLKLDTSSEKLEFLQLFGLTTQQQKEELVAQKRRKRRRMLRERSPSPPTIQSKRQTPSPRLALSTRYSPDEMNNSPNFEEKKKFLTIFNLTHISAEKRKDKERLVEMLRAMKQKALSAAVADSLTNSPRDSPAVSLSEPATQQASLDVEKPVGVAASLSDIPKAAEPGKLEQVRPQELSRVQELAPASGEKARLSEAPGGKKSLSMLHYIRGAAPKDIPVPLSHSTNGKSKPWEPFVAEEFAHQFHESVLQSTQKALQKHKGSVAVLSAEQNHKVDTSVHYNIPELQSSSRAPPPQHNGQQEPPTARKGPPTQELDRDSEEEEEEDDEDGEDEEEVPKRKWQGIEAVFEAYQEHIEEQNLERQVLQTQCRRLEARHYSLSLTAEQLSHSVAELRSQKQKMVSERERLQAELDHLRKCLALPAMHWPRGYLKGYPR
partner: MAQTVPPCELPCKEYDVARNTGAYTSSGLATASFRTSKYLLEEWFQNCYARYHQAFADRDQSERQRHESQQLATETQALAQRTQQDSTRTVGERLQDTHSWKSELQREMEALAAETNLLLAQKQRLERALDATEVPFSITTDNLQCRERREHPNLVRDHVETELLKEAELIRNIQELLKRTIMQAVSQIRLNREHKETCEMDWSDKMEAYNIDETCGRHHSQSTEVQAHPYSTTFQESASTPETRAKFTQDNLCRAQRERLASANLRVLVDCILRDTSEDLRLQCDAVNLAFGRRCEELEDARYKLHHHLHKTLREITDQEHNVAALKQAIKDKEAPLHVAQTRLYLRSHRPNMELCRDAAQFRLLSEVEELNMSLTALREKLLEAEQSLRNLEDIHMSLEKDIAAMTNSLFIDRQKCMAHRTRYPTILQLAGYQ

Variants of: B1
Details: with praf1_human RABAC1, Q9UI14
Chain of praf1_human RABAC1, Q9UI14 (Q9UI14 whole entry): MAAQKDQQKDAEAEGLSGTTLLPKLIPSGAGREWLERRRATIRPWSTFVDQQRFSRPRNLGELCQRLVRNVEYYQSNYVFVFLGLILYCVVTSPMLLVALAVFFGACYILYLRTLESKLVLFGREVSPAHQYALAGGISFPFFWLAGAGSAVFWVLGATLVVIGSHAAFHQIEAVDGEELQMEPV

Row | effect of a mutation on the interaction | Variant
1 | with no effect | K319E

Variants of: B1
Details: with ubql1_human UBQLN1, Q9UMX0
Chain of ubql1_human UBQLN1, Q9UMX0 (Q9UMX0 whole entry): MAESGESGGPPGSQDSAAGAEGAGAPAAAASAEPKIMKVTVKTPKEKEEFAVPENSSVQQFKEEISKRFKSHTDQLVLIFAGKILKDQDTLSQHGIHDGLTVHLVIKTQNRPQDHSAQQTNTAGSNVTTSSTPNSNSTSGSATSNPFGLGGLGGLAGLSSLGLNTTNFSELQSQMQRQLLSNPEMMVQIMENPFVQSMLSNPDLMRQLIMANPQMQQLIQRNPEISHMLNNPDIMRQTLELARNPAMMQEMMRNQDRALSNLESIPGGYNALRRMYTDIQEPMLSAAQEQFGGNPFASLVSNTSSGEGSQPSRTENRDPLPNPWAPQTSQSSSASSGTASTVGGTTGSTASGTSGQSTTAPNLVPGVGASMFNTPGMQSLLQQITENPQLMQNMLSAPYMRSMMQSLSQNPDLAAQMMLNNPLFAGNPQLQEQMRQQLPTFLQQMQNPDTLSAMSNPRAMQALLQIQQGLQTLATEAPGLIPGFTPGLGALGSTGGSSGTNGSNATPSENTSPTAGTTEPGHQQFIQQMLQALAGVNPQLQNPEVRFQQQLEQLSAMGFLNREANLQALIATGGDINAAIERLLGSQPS

Row | effect of a mutation on the interaction | Variant
2 | with no effect | K319E

Variants of: B1
Details: with sdcb1_human SDCBP

Row | effect of a mutation on the interaction | Variant
3 | with no effect | K319E

Variants of: B1
Details: with nutm1_human NUTM1, Q86Y26
Chain of nutm1_human NUTM1, Q86Y26 (Q86Y26 whole entry): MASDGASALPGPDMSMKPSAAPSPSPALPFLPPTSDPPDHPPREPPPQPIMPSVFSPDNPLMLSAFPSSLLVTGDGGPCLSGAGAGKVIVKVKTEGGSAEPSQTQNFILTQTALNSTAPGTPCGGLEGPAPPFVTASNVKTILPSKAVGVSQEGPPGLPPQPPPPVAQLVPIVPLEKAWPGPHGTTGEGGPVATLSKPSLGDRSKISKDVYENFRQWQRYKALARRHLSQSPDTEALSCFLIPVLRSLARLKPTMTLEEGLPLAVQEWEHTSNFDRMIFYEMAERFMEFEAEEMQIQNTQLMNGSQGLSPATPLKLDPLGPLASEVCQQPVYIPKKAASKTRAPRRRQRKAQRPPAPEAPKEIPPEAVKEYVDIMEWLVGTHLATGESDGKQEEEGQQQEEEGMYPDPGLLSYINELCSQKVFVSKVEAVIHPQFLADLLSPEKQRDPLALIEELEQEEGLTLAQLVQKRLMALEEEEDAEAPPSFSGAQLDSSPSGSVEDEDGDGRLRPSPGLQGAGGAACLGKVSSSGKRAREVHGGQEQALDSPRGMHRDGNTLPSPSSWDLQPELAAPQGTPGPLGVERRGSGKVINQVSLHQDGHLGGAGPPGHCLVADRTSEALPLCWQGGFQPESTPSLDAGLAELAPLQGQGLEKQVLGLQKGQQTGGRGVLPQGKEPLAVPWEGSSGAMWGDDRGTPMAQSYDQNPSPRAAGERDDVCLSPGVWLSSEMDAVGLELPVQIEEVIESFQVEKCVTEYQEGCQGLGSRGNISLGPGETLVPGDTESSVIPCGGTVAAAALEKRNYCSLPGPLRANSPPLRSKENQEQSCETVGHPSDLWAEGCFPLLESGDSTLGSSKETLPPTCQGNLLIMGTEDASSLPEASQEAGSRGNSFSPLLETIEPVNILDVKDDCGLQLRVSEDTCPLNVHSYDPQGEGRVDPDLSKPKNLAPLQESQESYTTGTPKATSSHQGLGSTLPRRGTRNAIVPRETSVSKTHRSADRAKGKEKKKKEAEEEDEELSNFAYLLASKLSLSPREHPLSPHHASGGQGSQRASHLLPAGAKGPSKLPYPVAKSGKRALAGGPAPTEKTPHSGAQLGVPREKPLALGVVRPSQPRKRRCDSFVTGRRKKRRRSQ

Row | effect of a mutation on the interaction | Variant
4 | with no effect | K319E

Variants of: B2
Details: with cdrt4_human CDRT4, Q8N9R6

Row | effect of a mutation on the interaction | Variant
5 | with no effect | A127S

Variants of: B3
Details: with txlna_human TXLNA

Row | effect of a mutation on the interaction | Variant
6 | with no effect | P389L

Variants of: B3
Details: with 2a5d_human PPP2R5D

Row | effect of a mutation on the interaction | Variant
7 | with no effect | P389L

Variants of: B3
Details: with ccnh_human CCNH

Row | effect of a mutation on the interaction | Variant
8 | with no effect | P389L

Variants of: B3
Details: with 2a5d_human PPP2R5D
Remark: another data set of the same source

Row | effect of a mutation on the interaction | Variant
9 | disrupting interaction strength | L330F

Variants of: B3
Details: with ccnh_human CCNH
Remark: another data set of the same source

Row | effect of a mutation on the interaction | Variant
10 | disrupting interaction strength | L330F

Variants of: B4
Details: with peg10_human PEG10, Q86TG7

Row | effect of a mutation on the interaction | Variant
11 | with no effect | P669A

Variants of: B5
Details: with tekt4_human TEKT4, Q8WW24

Row | effect of a mutation on the interaction | Variant
12 | with no effect | R503Q

Variants of: B5
Details: with tekt4_human TEKT4, Q8WW24
Remark: another data set of the same source

Row | effect of a mutation on the interaction | Variant
13 | with no effect | E368K
